Source: the supplement of paper PMC9112550, “Optimization of the antimicrobial peptide Bac7 by deep mutational scanning” (BMC Biology, 2022)

System: Escherichia coli TOP10
Assay: shrunken log2 fold change of peptide-encoding DNA abundance (4.5 h post-induction vs induction); higher = less antimicrobial activity (less host growth inhibition)
Details: time post-induction: 4.5 h; library: site-saturation at positions 5, 18, 19, 20
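Further: peptides expressed intracellularly from a pBAD plasmid library in pooled LB shake-flask culture, induced with 0.3% L-arabinose, DNA abundance read by NGS, three biological replicates, DESeq2 with apeglm shrinkage.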

| Sequence | shrunken log2 fold change |
| --- | --- |
| RRIRKRPPRLPRPRPRPCKAPRP | 0.0525 |
| RRIRARPPRLPRPRPRPGELPRP | 0.333 |
| RRIRQRPPRLPRPRPRPIDWPRP | 1.59e-05 |
| RRIRKRPPRLPRPRPRPHNLPRP | 0.0314 |
| RRIRARPPRLPRPRPRPEYYPRP | -0.059 |
| RRIRSRPPRLPRPRPRPIYYPRP | -0.641 |
| RRIRQRPPRLPRPRPRPSTTPRP | -0.572 |
| RRIRTRPPRLPRPRPRPRTWPRP | -0.0887 |
| RRIRFRPPRLPRPRPRPANAPRP | -0.0885 |
| RRIRARPPRLPRPRPRPLKNPRP | -0.127 |
| RRIRMRPPRLPRPRPRPKHCPRP | 0.0651 |
| RRIRDRPPRLPRPRPRPWYFPRP | -0.327 |
| RRIRWRPPRLPRPRPRPNFKPRP | -0.264 |
| RRIRCRPPRLPRPRPRPTKMPRP | -0.301 |
| RRIRWRPPRLPRPRPRPAWTPRP | 0.428 |
| RRIRPRPPRLPRPRPRPQICPRP | -0.0262 |
| RRIRNRPPRLPRPRPRPKIVPRP | -0.0195 |
| RRIRTRPPRLPRPRPRPTGKPRP | -0.108 |
| RRIRLRPPRLPRPRPRPENAPRP | -0.000678 |
| RRIRVRPPRLPRPRPRPHGEPRP | 0.0918 |
| RRIRQRPPRLPRPRPRPSSFPRP | -0.308 |
| RRIRGRPPRLPRPRPRPLPCPRP | 0.51 |
| RRIRSRPPRLPRPRPRPFQGPRP | -0.0569 |
| RRIRSRPPRLPRPRPRPACYPRP | -0.0386 |
| RRIRRRPPRLPRPRPRPDTIPRP | -0.15 |

| Sequence | shrunken log2 fold change |
| --- | --- |
| RRIRLRPPRLPRPRPRPLWVPRP | 0.0349 |
| RRIRYRPPRLPRPRPRPLYYPRP | -1.44 |
| RRIRVRPPRLPRPRPRPDIAPRP | -0.211 |
| RRIRERPPRLPRPRPRPLNPPRP | -0.0394 |
| RRIRGRPPRLPRPRPRPGKTPRP | 0.0643 |
| RRIRPRPPRLPRPRPRPKVNPRP | -0.148 |
| RRIRWRPPRLPRPRPRPTHFPRP | -0.478 |
| RRIRKRPPRLPRPRPRPCAQPRP | 0.208 |
| RRIRTRPPRLPRPRPRPNAQPRP | 0.5 |
| RRIRNRPPRLPRPRPRPNMWPRP | -0.274 |
| RRIRFRPPRLPRPRPRPRTFPRP | -0.179 |
| RRIRYRPPRLPRPRPRPLAWPRP | -0.0165 |
| RRIRPRPPRLPRPRPRPRLIPRP | 0.292 |
| RRIRDRPPRLPRPRPRPNNMPRP | -0.0368 |
| RRIRLRPPRLPRPRPRPFRDPRP | 0.00463 |
| RRIRVRPPRLPRPRPRPMHYPRP | -0.266 |
| RRIRNRPPRLPRPRPRPKPSPRP | 0.137 |
| RRIRNRPPRLPRPRPRPHFSPRP | 0.0053 |
| RRIRIRPPRLPRPRPRPNNWPRP | -0.535 |
| RRIRVRPPRLPRPRPRPYAPPRP | -0.0528 |
| RRIRSRPPRLPRPRPRPHNKPRP | -0.71 |
| RRIRFRPPRLPRPRPRPPRDPRP | 1 |
| RRIRPRPPRLPRPRPRPPAVPRP | 0.37 |
| RRIRIRPPRLPRPRPRPHWSPRP | -0.187 |
| RRIRTRPPRLPRPRPRPHTIPRP | -0.314 |

| Sequence | shrunken log2 fold change |
| --- | --- |
| RRIRKRPPRLPRPRPRPKFGPRP | 0.0786 |
| RRIRFRPPRLPRPRPRPETMPRP | 0.0761 |
| RRIRDRPPRLPRPRPRPTITPRP | 0.0537 |
| RRIRLRPPRLPRPRPRPSWFPRP | -0.237 |
| RRIRSRPPRLPRPRPRPWLNPRP | -0.119 |
| RRIRCRPPRLPRPRPRPFWLPRP | -0.227 |
| RRIRQRPPRLPRPRPRPIFWPRP | 0.142 |
| RRIRCRPPRLPRPRPRPVYLPRP | -0.646 |
| RRIRRRPPRLPRPRPRPYFKPRP | -0.572 |
| RRIRNRPPRLPRPRPRPFLKPRP | -0.294 |
| RRIRMRPPRLPRPRPRPRMVPRP | 0.125 |
| RRIRERPPRLPRPRPRPALHPRP | 0.247 |
| RRIRERPPRLPRPRPRPFHKPRP | -0.355 |
| RRIRCRPPRLPRPRPRPGSSPRP | 0.0141 |
| RRIRLRPPRLPRPRPRPFCPPRP | -0.355 |
| RRIRMRPPRLPRPRPRPDCDPRP | 0.0709 |
| RRIRLRPPRLPRPRPRPDQKPRP | 0.0416 |
| RRIRMRPPRLPRPRPRPFVAPRP | 0.113 |
| RRIRPRPPRLPRPRPRPEVEPRP | -0.00972 |
| RRIRWRPPRLPRPRPRPPNHPRP | 0.0941 |
| RRIRLRPPRLPRPRPRPSYDPRP | -0.292 |
| RRIRVRPPRLPRPRPRPIIRPRP | -0.199 |
| RRIRRRPPRLPRPRPRPHHDPRP | -0.298 |
| RRIRMRPPRLPRPRPRPSEGPRP | -0.00192 |
| RRIRRRPPRLPRPRPRPWYIPRP | -0.595 |

| Sequence | shrunken log2 fold change |
| --- | --- |
| RRIRSRPPRLPRPRPRPEKKPRP | 0.0751 |
| RRIRHRPPRLPRPRPRPGMVPRP | 0.12 |
| RRIRVRPPRLPRPRPRPSGHPRP | -0.185 |
| RRIRFRPPRLPRPRPRPLLIPRP | -0.385 |
| RRIRKRPPRLPRPRPRPVINPRP | -0.0513 |
| RRIRFRPPRLPRPRPRPEQHPRP | 1.53 |
| RRIRDRPPRLPRPRPRPPRGPRP | 1.31 |
| RRIRYRPPRLPRPRPRPNELPRP | -0.717 |
| RRIRARPPRLPRPRPRPAHTPRP | 0.544 |
| RRIRKRPPRLPRPRPRPRYPPRP | 0.122 |
| RRIRQRPPRLPRPRPRPGFAPRP | 0.249 |
| RRIRDRPPRLPRPRPRPDMQPRP | 1.13 |
| RRIRKRPPRLPRPRPRPKEIPRP | 0.00103 |
| RRIRQRPPRLPRPRPRPAQSPRP | 0.29 |
| RRIRIRPPRLPRPRPRPSFAPRP | -0.24 |
| RRIRDRPPRLPRPRPRPMWAPRP | -0.0235 |
| RRIRCRPPRLPRPRPRPCPGPRP | -0.191 |
| RRIRYRPPRLPRPRPRPWDFPRP | -0.0206 |
| RRIRMRPPRLPRPRPRPNMKPRP | 0.0548 |
| RRIRQRPPRLPRPRPRPTPLPRP | 0.487 |
| RRIRCRPPRLPRPRPRPAIKPRP | -0.738 |
| RRIRNRPPRLPRPRPRPGSMPRP | -0.225 |
| RRIRMRPPRLPRPRPRPGNYPRP | -0.0658 |
| RRIRTRPPRLPRPRPRPDSTPRP | -0.232 |
| RRIRERPPRLPRPRPRPDFIPRP | -0.092 |

| Sequence | shrunken log2 fold change |
| --- | --- |
| RRIRSRPPRLPRPRPRPRAVPRP | 0.582 |
| RRIRDRPPRLPRPRPRPSAQPRP | 0.469 |
| RRIRCRPPRLPRPRPRPLVDPRP | 1.58 |
| RRIRVRPPRLPRPRPRPCLGPRP | -0.069 |
| RRIRKRPPRLPRPRPRPPQVPRP | 0.00672 |
| RRIRCRPPRLPRPRPRPAYGPRP | 0.13 |
| RRIRLRPPRLPRPRPRPNGPPRP | -0.146 |
| RRIRSRPPRLPRPRPRPVHTPRP | 0.0158 |
| RRIRSRPPRLPRPRPRPLTDPRP | -0.162 |
| RRIRLRPPRLPRPRPRPTRIPRP | -0.141 |
| RRIRSRPPRLPRPRPRPEWNPRP | 0.119 |
| RRIRLRPPRLPRPRPRPWDDPRP | -0.208 |
| RRIRWRPPRLPRPRPRPNRGPRP | 0.172 |
| RRIRVRPPRLPRPRPRPRMVPRP | -0.0168 |
| RRIRYRPPRLPRPRPRPREQPRP | -0.659 |
| RRIRGRPPRLPRPRPRPTERPRP | 0.675 |
| RRIRHRPPRLPRPRPRPDVYPRP | 0.0592 |
| RRIRHRPPRLPRPRPRPRTVPRP | 0.126 |
| RRIRQRPPRLPRPRPRPCIFPRP | -0.142 |
| RRIRVRPPRLPRPRPRPPTEPRP | 0.273 |
| RRIRERPPRLPRPRPRPKGCPRP | -0.0587 |
| RRIRWRPPRLPRPRPRPLWTPRP | 0.0621 |
| RRIRRRPPRLPRPRPRPKMHPRP | 0.443 |
| RRIRWRPPRLPRPRPRPVIMPRP | -0.273 |
| RRIRVRPPRLPRPRPRPQDIPRP | -0.328 |

| Sequence | shrunken log2 fold change |
| --- | --- |
| RRIRIRPPRLPRPRPRPLELPRP | -0.461 |
| RRIRTRPPRLPRPRPRPLAWPRP | 0.195 |
| RRIRDRPPRLPRPRPRPLCHPRP | 0.0833 |
| RRIRERPPRLPRPRPRPLPNPRP | -0.658 |
| RRIRWRPPRLPRPRPRPKVKPRP | 0.49 |
| RRIRLRPPRLPRPRPRPTHIPRP | -0.148 |
| RRIRSRPPRLPRPRPRPHVCPRP | 0.0517 |
| RRIRKRPPRLPRPRPRPLWQPRP | 0.442 |
| RRIRLRPPRLPRPRPRPRREPRP | 0.223 |
| RRIRSRPPRLPRPRPRPHFNPRP | -0.419 |
| RRIRDRPPRLPRPRPRPIQRPRP | -0.01 |
| RRIRGRPPRLPRPRPRPILQPRP | 0.621 |
| RRIRFRPPRLPRPRPRPHLDPRP | -0.275 |
| RRIRTRPPRLPRPRPRPVHIPRP | -0.149 |
| RRIRLRPPRLPRPRPRPWFGPRP | -0.149 |
| RRIRYRPPRLPRPRPRPCRPPRP | -0.0124 |
| RRIRSRPPRLPRPRPRPSRNPRP | -0.129 |
| RRIRKRPPRLPRPRPRPHRGPRP | 0.0594 |
| RRIRRRPPRLPRPRPRPQHSPRP | -0.0462 |
| RRIRMRPPRLPRPRPRPKAEPRP | 3.05 |
| RRIRARPPRLPRPRPRPPFKPRP | 0.368 |
| RRIRYRPPRLPRPRPRPKTKPRP | -0.295 |
| RRIRQRPPRLPRPRPRPAPSPRP | 0.492 |
| RRIRGRPPRLPRPRPRPFTRPRP | 0.0912 |
| RRIRVRPPRLPRPRPRPANGPRP | 0.136 |
